Measurements: IntAct's records for PubMed 15933719

B1: Rab-interacting lysosomal protein (Homo sapiens), Q96NA2 (parent)
chain: MEPRRAAPGVPGWGSREAAGSASAAELVYHLAGALGTELQDLARRFGPEAAAGLVPLVVRALELLEQAAVGPAPDSLQVSAQPAEQELRRLREENERLRRELRAGPQEERALLRQLKEVTDRQRDELRAHNRDLRQRGQETEALQEQLQRLLLVNAELRHKLAAMQTQLRAAQDRERERQQPGEAATPQAKERARGQAGRPGHQHGQEPEWATAGAGAPGNPEDPAEAAQQLGRPSEAGQCRFSREEFEQILQERNELKAKVFLLKEELAYFQRELLTDHRVPGLLLEAMKVAVRKQRKKIKAKMLGTPEEAESSEDEAGPWILLSDDKGDHPPPPESKIQSFFGLWYRGKAESSEDETSSPAPSKLGGEEEAQPQSPAPDPPCSALHEHLCLGASAAPEA

Variants of: B1
Conditions: with rab7a_human RAB7A

Variant | effect of a mutation on the interaction
MEPRRAAPGVPGWGSREAAGSASAAELVYHLAGALGTELQDLARRFGPEAAAGLVPLVVRALELLEQAAVGPAPDSLQVSAQPAEQELRRLREENERLRRELRAGPQEERALLRQLKEVTDRQRDELRAHNRDLRQRGQETEALQEQLQRLLLVNAELRHKLAAMQTQLRAAQDRERERQQPGEAATPQAKERARGQAGRPGHQHGQEPEWATAGAGAPGNPEDPAEAAQQLGRPSEAGQCRFSREEFEQILQEANELKAKVFLLKEELAYFQRELLTDHRVPGLLLEAMKVAVRKQRKKIKAKMLGTPEEAESSEDEAGPWILLSDDKGDHPPPPESKIQSFFGLWYRGKAESSEDETSSPAPSKLGGEEEAQPQSPAPDPPCSALHEHLCLGASAAPEA [R255A] | disrupting interaction strength
MEPRRAAPGVPGWGSREAAGSASAAELVYHLAGALGTELQDLARRFGPEAAAGLVPLVVRALELLEQAAVGPAPDSLQVSAQPAEQELRRLREENERLRRELRAGPQEERALLRQLKEVTDRQRDELRAHNRDLRQRGQETEALQEQLQRLLLVNAELRHKLAAMQTQLRAAQDRERERQQPGEAATPQAKERARGQAGRPGHQHGQEPEWATAGAGAPGNPEDPAEAAQQLGRPSEAGQCRFSREEFEQILQERNEAKAKVFLLKEELAYFQRELLTDHRVPGLLLEAMKVAVRKQRKKIKAKMLGTPEEAESSEDEAGPWILLSDDKGDHPPPPESKIQSFFGLWYRGKAESSEDETSSPAPSKLGGEEEAQPQSPAPDPPCSALHEHLCLGASAAPEA [L258A] | disrupting interaction strength
MEPRRAAPGVPGWGSREAAGSASAAELVYHLAGALGTELQDLARRFGPEAAAGLVPLVVRALELLEQAAVGPAPDSLQVSAQPAEQELRRLREENERLRRELRAGPQEERALLRQLKEVTDRQRDELRAHNRDLRQRGQETEALQEQLQRLLLVNAELRHKLAAMQTQLRAAQDRERERQQPGEAATPQAKERARGQAGRPGHQHGQEPEWATAGAGAPGNPEDPAEAAQQLGRPSEAGQCRFSREEFEQILQERNELKAKVFLLKEELAYFQRELLTDHRVPGLLLEAMKVAVRKQRKKIKAAMLGTPEEAESSEDEAGPWILLSDDKGDHPPPPESKIQSFFGLWYRGKAESSEDETSSPAPSKLGGEEEAQPQSPAPDPPCSALHEHLCLGASAAPEA [K304A] | disrupting interaction strength
MEPRRAAPGVPGWGSREAAGSASAAELVYHLAGALGTELQDLARRFGPEAAAGLVPLVVRALELLEQAAVGPAPDSLQVSAQPAEQELRRLREENERLRRELRAGPQEERALLRQLKEVTDRQRDELRAHNRDLRQRGQETEALQEQLQRLLLVNAELRHKLAAMQTQLRAAQDRERERQQPGEAATPQAKERARGQAGRPGHQHGQEPEWATAGAGAPGNPEDPAEAAQQLGRPSEAGQCRFSREEFEQILQERNELKAKVFLLKEELAYFQRELLTDHRVPGLLLEAMKVAVRKQRKKIKAKALGTPEEAESSEDEAGPWILLSDDKGDHPPPPESKIQSFFGLWYRGKAESSEDETSSPAPSKLGGEEEAQPQSPAPDPPCSALHEHLCLGASAAPEA [M305A] | disrupting interaction strength
MEPRRAAPGVPGWGSREAAGSASAAELVYHLAGALGTELQDLARRFGPEAAAGLVPLVVRALELLEQAAVGPAPDSLQVSAQPAEQELRRLREENERLRRELRAGPQEERALLRQLKEVTDRQRDELRAHNRDLRQRGQETEALQEQLQRLLLVNAELRHKLAAMQTQLRAAQDRERERQQPGEAATPQAKERARGQAGRPGHQHGQEPEWATAGAGAPGNPEDPAEAAQQLGRPSEAGQCRFSREEFEQALQERNELKAKVFLLKEELAYFQRELLTDHRVPGLLLEAMKVAVRKQRKKIKAKMLGTPEEAESSEDEAGPWILLSDDKGDHPPPPESKIQSFFGLWYRGKAESSEDETSSPAPSKLGGEEEAQPQSPAPDPPCSALHEHLCLGASAAPEA [I251A] | disrupting interaction strength

Further lines, results first:

effect of a mutation on the interaction | Variant
disrupting interaction strength | MEPRRAAPGVPGWGSREAAGSASAAELVYHLAGALGTELQDLARRFGPEAAAGLVPLVVRALELLEQAAVGPAPDSLQVSAQPAEQELRRLREENERLRRELRAGPQEERALLRQLKEVTDRQRDELRAHNRDLRQRGQETEALQEQLQRLLLVNAELRHKLAAMQTQLRAAQDRERERQQPGEAATPQAKERARGQAGRPGHQHGQEPEWATAGAGAPGNPEDPAEAAQQLGRPSEAGQCRFSREEFEQILQERNELKAKVFLLKEELAYFQRELLTDHRVPGLLLEAMKVAVRKQRKKIKAKMAGTPEEAESSEDEAGPWILLSDDKGDHPPPPESKIQSFFGLWYRGKAESSEDETSSPAPSKLGGEEEAQPQSPAPDPPCSALHEHLCLGASAAPEA [L306A]
disrupting interaction strength | MEPRRAAPGVPGWGSREAAGSASAAELVYHLAGALGTELQDLARRFGPEAAAGLVPLVVRALELLEQAAVGPAPDSLQVSAQPAEQELRRLREENERLRRELRAGPQEERALLRQLKEVTDRQRDELRAHNRDLRQRGQETEALQEQLQRLLLVNAELRHKLAAMQTQLRAAQDRERERQQPGEAATPQAKERARGQAGRPGHQHGQEPEWATAGAGAPGNPEDPAEAAQQLGRPSEAGQCRFSREEFEQIAQERNELKAKVFLLKEELAYFQRELLTDHRVPGLLLEAMKVAVRKQRKKIKAKMLGTPEEAESSEDEAGPWILLSDDKGDHPPPPESKIQSFFGLWYRGKAESSEDETSSPAPSKLGGEEEAQPQSPAPDPPCSALHEHLCLGASAAPEA [L252A]
